According to article PMC7555893, “Structural role of essential light chains in the apicomplexan glideosome” (Communications Biology, 2020):

What was measured:
[1] = target: Pre-complex of TgELC2 with TgMyoA-C (T. gondii) (UniProt O00934); experiment: ITC; 200 uM protein (syringe) injected 19 x 2 uL into 20 uM pre-formed complex of light chain and MyoA peptide (cell, 1:1.1); 20 mM HEPES pH 7.5, 150 mM NaCl, 0.5 mM TCEP with 1 mM CaCl2; 25 °C; one-site model
[2] = target: Pre-complex of TgELC1 with TgMyoA-C (T. gondii) (UniProt O00934); experiment: as above
[3] = target: Pre-complex of TgELC2 R17A with TgMyoA-C (T. gondii) (UniProt O00934); experiment: as above
[4] = target: T. gondii essential light chain 1 (TgELC1) (T. gondii); experiment: ITC; 200 uM peptide (syringe) injected 19 x 2 uL into 20 uM protein (cell); 20 mM HEPES pH 7.5, 150 mM NaCl, 0.5 mM TCEP with 5 mM EDTA; 25 °C; one-site model
[5] = target: T. gondii essential light chain 2 (TgELC2) (T. gondii); experiment: as above
[6] = target: T. gondii essential light chain 1 (TgELC1) (T. gondii); experiment: ITC; 200 uM peptide (syringe) injected 19 x 2 uL into 20 uM protein (cell); 20 mM HEPES pH 7.5, 150 mM NaCl, 0.5 mM TCEP with 5 mM CaCl2; 25 °C; one-site model
[7] = target: T. gondii essential light chain 2 (TgELC2) (T. gondii); experiment: as above
TgELC2 E10A (T. gondii) = experiment: as above
[8] = target: TgELC2 E10A+H110A (T. gondii); experiment: as above
TgELC2 F79A (T. gondii) = experiment: as above
TgELC2 S101A (T. gondii) = experiment: as above
TgELC2 S102A (T. gondii) = experiment: as above
[9] = target: TgELC2 S102E (phosphomimetic) (T. gondii); experiment: as above
[10] = target: P. falciparum myosin A tail-interacting protein, short construct (MTIP-S) (P. falciparum 3D7) (UniProt Q8I4W8); experiment: ITC; MTIP in the cell, PfMyoA peptide in the syringe; one-site model; the conditions of this titration are not told
MTIP residues 77-204 = target: T1, MTIP residues 77-204 (P. falciparum 3D7, UniProt Q8I4W8 77-204); experiment: crystal structure; conditions: both partners purified
T1 construct: source: recombinantly expressed as a dimeric complex with PfMyoA-C, purified with PfELC (NiNTA IMAC, TEV, SEC)
T1 sequence: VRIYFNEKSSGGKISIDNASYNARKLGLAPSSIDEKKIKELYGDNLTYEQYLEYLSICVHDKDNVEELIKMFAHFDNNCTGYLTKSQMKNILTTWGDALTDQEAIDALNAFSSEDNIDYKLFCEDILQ

[11] = target: T2, Pre-complex of MTIP-S with PfMyoA-C (P. falciparum 3D7 | P. falciparum, UniProt Q8I4W8;Q8IDR3); experiment: ITC; 200 uM protein (syringe) injected 19 x 2 uL into 20 uM pre-formed complex of light chain and MyoA peptide (cell, 1:1.1); 20 mM HEPES pH 7.5, 150 mM NaCl, 0.5 mM TCEP with 1 mM CaCl2; 25 °C; one-site model; conditions: both partners purified
T2 construct: also called MTIP pre-complex with MyoA-C; MTIP/PfMyoA-C complex; source: formed from purified MTIP-S (E. coli) and the MyoA peptide in 1:1.1 molar ratio, 1 h at 4 °C
T2 sequence 1: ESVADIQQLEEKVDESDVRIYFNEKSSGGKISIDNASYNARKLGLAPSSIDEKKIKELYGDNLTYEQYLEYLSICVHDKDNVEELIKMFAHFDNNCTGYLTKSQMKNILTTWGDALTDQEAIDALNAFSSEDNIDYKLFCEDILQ
T2 sequence 2: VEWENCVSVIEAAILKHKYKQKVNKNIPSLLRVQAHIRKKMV

Question: Which results are given for MLC1-S Q169A (domain or fragment)?
Answer: Kd [1]: 2.3 nM; dH [1]: -48.8 kcal/mol; stoichiometry N [1]: 0.89

Question: Which Kd [2] does the source give for “T. gondii myosin light chain 1, short construct (MLC1-S) (domain or fragment)” here?
Answer: 4.7 nM

Question: What about the dH [2] of the same molecule?
Answer: -39.1 kcal/mol

Question: What about the Kd [3] of the same molecule?
Answer: 4.6 nM

Question: What about the dH [3] of the same molecule?
Answer: -49.7 kcal/mol

Question: What about the Kd [1] of the same molecule?
Answer: 0.6 nM

Question: What about the dH [1] of the same molecule?
Answer: -47.6 kcal/mol

Question: And the stoichiometry N [1]?
Answer: 0.81

Question: With “TgMyoA-C^ELC peptide (from UniProt O00934 777-798)” as the molecule, how does the Kd [4] read?
Answer: 57 nM

Question: And the dH [4]?
Answer: -13 kcal/mol

Question: And the stoichiometry N [4]?
Answer: 0.81

Question: What about the Kd [5] of the same molecule?
Answer: 82 nM

Question: What about the dH [5] of the same molecule?
Answer: -18 kcal/mol

Question: And the stoichiometry N [5]?
Answer: 0.77

Question: And the Kd [6]?
Answer: 36 nM

Question: And the dH [6]?
Answer: -13 kcal/mol

Question: What about the stoichiometry N [6] of the same molecule?
Answer: 1.05

Question: And the Kd [7]?
Answer: 39 nM

Question: And the dH [7]?
Answer: -15 kcal/mol

Question: And the stoichiometry N [7]?
Answer: 0.85

Question: And the Kd (TgELC2 E10A (T. gondii))?
Answer: 190 nM

Question: What about the dH (TgELC2 E10A (T. gondii)) of the same molecule?
Answer: -17 kcal/mol

Question: And the stoichiometry N (TgELC2 E10A (T. gondii))?
Answer: 0.79

Question: What about the Kd [8] of the same molecule?
Answer: 1100 nM

Question: What about the dH [8] of the same molecule?
Answer: -21 kcal/mol

Question: And the stoichiometry N [8]?
Answer: 0.75

Question: And the Kd (TgELC2 F79A (T. gondii))?
Answer: 280 nM

Question: And the dH (TgELC2 F79A (T. gondii))?
Answer: -18 kcal/mol

Question: What about the stoichiometry N (TgELC2 F79A (T. gondii)) of the same molecule?
Answer: 0.84

Question: What about the Kd (TgELC2 S101A (T. gondii)) of the same molecule?
Answer: 280 nM

Question: And the dH (TgELC2 S101A (T. gondii))?
Answer: -18 kcal/mol

Question: And the stoichiometry N (TgELC2 S101A (T. gondii))?
Answer: 0.88

Question: What about the Kd (TgELC2 S102A (T. gondii)) of the same molecule?
Answer: 76 nM

Question: What about the dH (TgELC2 S102A (T. gondii)) of the same molecule?
Answer: -16 kcal/mol

Question: What about the stoichiometry N (TgELC2 S102A (T. gondii)) of the same molecule?
Answer: 0.79

Question: What about the Kd [9] of the same molecule?
Answer: 140 nM

Question: And the dH [9]?
Answer: -18 kcal/mol

Question: What about the stoichiometry N [9] of the same molecule?
Answer: 0.77

Question: Which results are given for MLC1-S K168A (domain or fragment)?
Answer: Kd [1]: 1.2 nM; dH [1]: -47.7 kcal/mol; stoichiometry N [1]: 0.79

Question: PfMyoA-C^ELC peptide was tested. Which Kd [10] did it give?
Answer: 303 nM

Question: What about the dH [10] of the same molecule?
Answer: -14.4 kcal/mol

Question: What about the stoichiometry N [10] of the same molecule?
Answer: 0.74

Question: Does VEWENCVSVIEAAILKHKYKQKVNKNIPSLLRVQAHIRKKMV (domain or fragment) [PfMyoA-C (775-816), recombinant, expressed with MTIP 77-204] bind (MTIP residues 77-204)?
Answer: binds

B1: P. falciparum essential light chain (PfELC) (natural protein)
chain: MASDMEEKFREAFILFSSCSDHIEMYKFFELMNSFGIILTNDEKAALPNDINMDYWLNFAKKHYNYEQPFKHINNVNEQNTNVQIKIDNFLGIMKALDTRLTESDLNILLQITNPENKSTLNLKTVSQKLTESI
notes: also called full-length PfELC; source: E. coli BL21-CodonPlus(DE3)-RIL, purified (Ni-IMAC, TEV, SEC)
Question: Which Kd [11] does the source give for B1 here?
Answer: 109 ± 6.2 nM

Question: What about the dH [11] of the same molecule?
Answer: -13.4 ± 0.1 kcal/mol

Question: What about the “stoichiometry N” value [11] of the same molecule?
Answer: 0.86 ± 0.01

B2: PfELC S127D (phosphomimetic) (natural protein)
chain: MASDMEEKFREAFILFSSCSDHIEMYKFFELMNSFGIILTNDEKAALPNDINMDYWLNFAKKHYNYEQPFKHINNVNEQNTNVQIKIDNFLGIMKALDTRLTESDLNILLQITNPENKSTLNLKTVDQKLTESI
notes: source: E. coli, purified (expressed and purified under identical conditions as the wild type)
Question: B2 was tested. Which Kd [11] did it give?
Answer: 260 ± 26 nM

Question: And the dH [11]?
Answer: -12.6 ± 0.2 kcal/mol

Question: And the “stoichiometry N” value [11]?
Answer: 0.81 ± 0.01
